Laboratory results taken from patent publication US12723255B2, “Herbicide tolerance genes and methods of use thereof” (priority 2014, dated 2026).

Test: high-throughput enzyme assay with crude bacterial extract
Format: biochemical
Details: relative to wild-type RdpA; for Average quizalofop-P activity: average of replicates
Experimental: The high-throughput bacterial protein expression was achieved by synthesizing a recombinant DNA molecule encoding each engineered protein and cloning this into a bacterial expression vector with a C-terminal histidine tag (His-tag) operably linked to the recombinant DNA molecule. The vectors were used to transform Escherichia coli (E. coli), and bacterial expression of the engineered proteins was induced. Overnight E. coli cultures were grown in 96-well plates and the cultures were centrifuged to pellet the bacteria. The bacterial pellets were lysed by adding 100 ul lysis master mix (10 ml of Bacteria Protein Extraction Reagent (B-PER®) II (Pierce Biotechnology, Rockford, IL; cat. no. 78260); 10 ul Lysozyme (10 ug/ml final; Lysozyme American Bioanalytical, Natick, MA; cat. no. AB011780-00005); and 40 ul Benzonase® Nuclease (100 Units/ml final, Novagen, Darmstadt, Germany; cat no 71206-3)) to each well. The plates were vortexed then incubated for 30 minutes at 4° C. 400 ul of MOPS buffer (pH 6.57) was added to cach well and the debris pelleted by centrifugation. The lysate supernatant was carefully removed and used as the crude bacterial extract for subsequent enzymatic analysis.
The high-throughput herbicide degradation enzyme assay was designed to assay the enzymatic activity of the engineered proteins towards various herbicides using crude bacterial extract. The engineered protein's oxygenase activity (that is, its enzymatic activity) was measured by an end point colorimetric assay utilizing detection of phenol products through measurement of absorbance at 510 nm from 4-aminoantipyrine and potassium ferricyanide. This assay was based on the assay described in Fukomori and Hausinger, Journal of Biological Chemistry (1993) 268(32):24311-24317. Enzyme reactions were assayed in 96-well plates in a total volume of 150ul that contained: 20 mM MOPS pH 6.75, 50-200 uM NH4FeSO4, 50-200 uM sodium ascorbate, 1 mM alpha-ketoglutarate (aKG), 10 ul of E. coli cell lysate containing expressed engineered protein, and substrate (either an AOPP herbicide or phenoxy acid herbicide). […] Absorbance measurements were made on a standard laboratory spectrometer. Assays were scaled as needed to enhance throughput. Standard curves were generated using purified protein or product standards.
Using this high-throughput bacterial protein expression and enzyme assay system, activities of approximately 1200 engineered proteins were measured relative to the activity of a selected wild-type protein, RdpA. In a 96 well plate assay, there were 3 controls (crude bacterial extract without an engineered protein) and 3 positive controls (crude bacterial extract with wild-type protein). The absorbance of the wells was measured and the protein activity was calculated using the following formula:
[formula] where, Activityi is the activity of the sample, Absorbancei is the absorbance of the sample, AbsorbanceWT is the absorbance of the wells containing extract from E. coli expressing the wild-type enzyme, and AbsorbancepET is the absorbance of the wells containing extract from E. coli without an engineered protein. Activity for each unique engineered protein was measured in duplicate and was reported as an average of the two measurements.
Using the information learned from the first assays, protein engineering was then done as described previously to produce additional engineered proteins, which were tested as described in this Example 1. The results of the high-throughput enzyme assay with quizalofop-P as the substrate for five of these additional engineered proteins are provided in Table 2.

Row | Molecule | Replicate 1 quizalofop-P activity | Replicate 2 quizalofop-P activity | Average quizalofop-P activity | Replicate 3 quizalofop-P activity
1 | MON-HT55: engineered oxygenase protein, amino acid sequence SEQ ID NO:11 (protein) MHAALSPLSQRFERIAVQPLTGVLGAEITGVDLREPLDDSTWNEILDAFHTYQVIYFPGQAITNEQHIAFSRRFGPVDPVPLLKSIEGYPEVQMIRREANESGRVIGENWHTDSTFLDAPPAAVVMYAKEIPPYGGDTLFTSMYTAWETLSPTMQATIEGLNVVHSATRVFGSLYQAQNRRFSNTSVKVMDVDAGDRETVHPLVVTHPETGRKGLYVNQVYCQRIEGMSEKESEPLLSFLFAHATKPEFTCRVRWQEGDVLVWDNLCTQHYAVPDYAGKFRYLTRTTVGGVRPAR | 118.48 | 99.79 | 109.13 | 
2 | MON-HT51: engineered oxygenase protein, amino acid sequence SEQ ID NO:1 (protein) MHAALSPLSQRFERIAVQPLTGVLGAEITGVDLREPLSDSTWNEILDAFHTYQVIYFPGQAITNEQHIAFSRRFGPVDPVPLLKSIEGYPEVQMIRREANESGRVIGDDWHTDSSFLDAPPAAVVMRAIDVPEHGGDTGFLSMYTAYDALSDGLKKLISGLNVVHSATRVFGSLYQAQNRRFSNTSVKVMDVADGDRETVHPLVVTHPGSGRKGLYVNQVYCQRIEGMSEKESEPLLSFLFAHATKPEFTCRVRWKKDQVLVWDNLCTMHYAINDYHGQTRILHRTTVGGVRPAR | 117.02 | 124.87 | 117.35 | 110.17
